According to article PMC10415118:

What was measured:
Assay in all cases: purified protein
purified protein [1] = substrate: Nc1ccn([C@H]2C[C@H](O)[C@@H](CO)O2)c(=O)n1; settings: 30 °C, dC 0.05-5 mM
purified protein [2] = substrate: Nc1ccn([C@@H]2O[C@H](CO)[C@@H](O)[C@H]2O)c(=O)n1; settings: 30 °C, C 0.1-10 mM
purified protein [3] = substrate: Cc1cn([C@@H]2O[C@H](CO)[C@@H](O)[C@H]2O)c(=O)nc1N; settings: 30 °C, 5mC 1-200 mM
purified protein [4] = substrate: CO[C@@H]1[C@H](O)[C@@H](CO)O[C@H]1n1ccc(N)nc1=O; settings: 30 °C, 2OmC 1-200 mM
purified protein [5] = substrate: Cc1cn([C@H]2C[C@H](O)[C@@H](CO)O2)c(=O)nc1N; settings: 30 °C, 5mdC 1-100 mM

B1: CDA (AtCDA; CYTIDINE DEAMINASE; CDA-Strep) (Arabidopsis thaliana) (protein)
chain: MDKPSFVIQSKEAESAAKQLGVSVIQLLPSLVKPAQSYARTPISKFNVAVVGLGSSGRIFLGVNVEFPNLPLHHSIHAEQFLVTNLTLNGERHLNFFAVSAAPCGHCRQFLQEIRDAPEIKILITDPNNSADSDSAADSDGFLRLGSFLPHRFGPDDLLGKDHPLLLESHDNHLKISDLDSICNGNTDSSADLKQTALAAANRSYAPYSLCPSGVSLVDCDGKVYRGWYMESAAYNPSMGPVQAALVDYVANGGGGGYERIVGAVLVEKEDAVVRQEHTARLLLETISPKCEFKVFHCYEA
Km (purified protein [1]): 0.28 ± 0.05 mM
kcat (purified protein [1]): 18.1 ± 0.66 s⁻¹
kcat/Km (purified protein [1]): 64800 M⁻¹ s⁻¹
Km (purified protein [2]): 0.82 ± 0.15 mM
kcat (purified protein [2]): 29.4 ± 1.65 s⁻¹
kcat/Km (purified protein [2]): 35900 M⁻¹ s⁻¹
Km (purified protein [3]): 8.05 ± 0.96 mM
kcat (purified protein [3]): 35.4 ± 1.04 s⁻¹
kcat/Km (purified protein [3]): 4400 M⁻¹ s⁻¹
Km (purified protein [4]): 8.34 ± 1.12 mM
kcat (purified protein [4]): 35.5 ± 1.12 s⁻¹
kcat/Km (purified protein [4]): 4300 M⁻¹ s⁻¹
Km (purified protein [5]): 3.92 ± 0.61 mM
kcat (purified protein [5]): 54.1 ± 1.68 s⁻¹
kcat/Km (purified protein [5]): 13800 M⁻¹ s⁻¹
